Results: patent publication US12473372B2, “Inhibiting anti-ENPP1 antibodies” (The Regents of the University of California, priority 2020, dated 2025)

Legend:
murine ENPP1 = biological target: T1, murine ENPP1 (Mus musculus, UniProt P06802); assay: Cross reactivity of the antibody with murine ENPP1; assay type: binding; conditions: antibody raised against human recombinant protein
T1 sequence (P06802 1-906): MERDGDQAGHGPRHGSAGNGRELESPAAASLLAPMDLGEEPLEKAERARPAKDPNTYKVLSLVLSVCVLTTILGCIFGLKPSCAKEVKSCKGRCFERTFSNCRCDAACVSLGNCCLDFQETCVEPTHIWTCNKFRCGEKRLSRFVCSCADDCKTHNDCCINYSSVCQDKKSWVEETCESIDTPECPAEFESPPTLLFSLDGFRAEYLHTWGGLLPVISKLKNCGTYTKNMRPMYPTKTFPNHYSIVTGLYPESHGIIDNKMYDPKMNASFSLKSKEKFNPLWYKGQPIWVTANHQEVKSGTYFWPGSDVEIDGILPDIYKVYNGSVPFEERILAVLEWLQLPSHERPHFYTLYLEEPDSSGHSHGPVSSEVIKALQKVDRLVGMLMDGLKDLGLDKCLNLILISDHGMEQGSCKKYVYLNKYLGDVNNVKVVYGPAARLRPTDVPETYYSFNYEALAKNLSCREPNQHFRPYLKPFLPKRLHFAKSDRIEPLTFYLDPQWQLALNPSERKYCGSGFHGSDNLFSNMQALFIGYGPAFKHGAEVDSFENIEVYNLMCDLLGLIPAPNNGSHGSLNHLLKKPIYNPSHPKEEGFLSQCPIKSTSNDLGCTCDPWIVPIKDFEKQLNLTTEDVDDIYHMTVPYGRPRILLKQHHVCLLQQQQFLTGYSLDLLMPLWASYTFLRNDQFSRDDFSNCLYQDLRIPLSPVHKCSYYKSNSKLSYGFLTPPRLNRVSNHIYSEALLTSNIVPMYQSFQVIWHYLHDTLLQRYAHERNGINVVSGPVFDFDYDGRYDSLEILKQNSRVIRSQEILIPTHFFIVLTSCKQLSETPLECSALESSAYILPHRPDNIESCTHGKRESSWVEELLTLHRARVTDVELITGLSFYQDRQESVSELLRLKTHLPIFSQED
Description: The antibody was generated in collaboration with Lake Pharma using standard techniques of monoclonal antibody (mAb) generation, including immunization, collection and testing of hybridoma supernatants, cloning of hybridomas and further confirmation by multiple affinity assays followed by selection and production of the ENPP1mAb in a recombinant manner. […] The selected hybridoma has been sequenced and the recombinant monoclonal is produced on a CHO cell line with characterization by electropherogram and mass spectrometry. The molecular weight of the heavy chain is approximately 48 kD and the light chain 24 kD.

ENPP1 [1] = biological target: T2, ENPP1 (Homo sapiens, UniProt P22413); assay: Flow cytometry binding of ENPP1 mAb to HEK cells over-expressing full length ENPP1; parameters: HEK cells over-expressing full length ENPP1 were incubated with varying concentrations of ENPP1 mAb; expressed in transfected cells; host or cells: HEK cells; conditions: compared among several clones obtained; FIG. 15
T2 sequence (P22413 1-925): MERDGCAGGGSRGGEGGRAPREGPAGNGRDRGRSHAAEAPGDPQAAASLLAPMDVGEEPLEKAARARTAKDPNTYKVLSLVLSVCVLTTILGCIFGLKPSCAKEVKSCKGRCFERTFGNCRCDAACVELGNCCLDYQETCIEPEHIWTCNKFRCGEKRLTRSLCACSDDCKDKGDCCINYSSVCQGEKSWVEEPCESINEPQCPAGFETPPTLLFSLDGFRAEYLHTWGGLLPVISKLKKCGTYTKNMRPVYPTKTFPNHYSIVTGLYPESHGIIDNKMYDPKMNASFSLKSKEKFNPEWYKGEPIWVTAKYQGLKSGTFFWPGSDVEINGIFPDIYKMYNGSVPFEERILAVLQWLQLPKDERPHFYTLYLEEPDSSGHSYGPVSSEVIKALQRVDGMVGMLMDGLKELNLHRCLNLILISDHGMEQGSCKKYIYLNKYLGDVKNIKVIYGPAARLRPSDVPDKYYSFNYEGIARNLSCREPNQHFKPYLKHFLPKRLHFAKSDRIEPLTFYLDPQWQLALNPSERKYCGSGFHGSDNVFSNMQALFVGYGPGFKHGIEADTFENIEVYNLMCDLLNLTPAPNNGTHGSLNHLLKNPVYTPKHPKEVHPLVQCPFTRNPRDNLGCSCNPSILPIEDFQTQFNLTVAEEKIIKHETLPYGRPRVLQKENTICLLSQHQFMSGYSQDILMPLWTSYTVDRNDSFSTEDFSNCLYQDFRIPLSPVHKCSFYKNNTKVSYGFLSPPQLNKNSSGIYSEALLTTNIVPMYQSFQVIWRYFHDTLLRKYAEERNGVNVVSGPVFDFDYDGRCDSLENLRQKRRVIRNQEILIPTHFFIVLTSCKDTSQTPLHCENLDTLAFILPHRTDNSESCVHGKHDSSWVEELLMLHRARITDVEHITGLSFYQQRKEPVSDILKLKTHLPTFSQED
Method: FIG. 15 is an exemplary affinity binding curve of ENPP1 monoclonal antibody (mAb) targeting human ENPP1. HEK cells over-expressing full length ENPP1 were incubated with varying concentrations of ENPP1 mAb followed by flow cytometry to determine mean fluorescence intensity as a readout for binding. […] IgG at an identical concentration is used as a control.

ENPP1 [2] = biological target: T2, ENPP1; assay: Luciferase based ATP assay of ENPP1 inhibition; assay type: biochemical; conditions: FIG. 17
Method: FIG. 17 is an exemplary graph showing the effect of monoclonal Ab 12-J-4 in inhibiting ENPP1. In a luciferase based assay, ATP was incubated with luciferase in the presence or absence of ENPP1+/−the mAb or IgG control. In the absence of ENPP1, high luminescence signal is obtained.

[3] = system: ENPP1 mediated cell death of cardiac fibroblasts; assay: Co-culture of cardiac fibroblasts and cardiomyocytes with recombinant ENPP1 and ATP, cell death; assay type: cell-based; conditions: for cell death and detachment of cardiac fibroblasts: images after 48 hours, versus IgG control, FIG. 18A
Method: FIG. 18A are exemplary micrographs showing ENPP1 mAb inhibits ENPP1 mediated cell death. Cardiac fibroblasts (green) were co-cultured with cardiomyocytes (red) followed by the addition of vehicle (panel A) or recombinant ENPP1 and ATP and IgG (panel B) or recombinant ENPP1 and ATP and 12-J-4 ENPP1mAb (panel C). Images were taken after 48 hours and show cell death and detachment of cardiac fibroblasts in the IgG control well (panel B).
FIG. 18B is an exemplary graph showing results of flow cytometry measuring cell death (PI+) from the assay performed in FIG. 18A.
Next, functional data was collected for the ENPP1 mAb using an in vitro functional assay. As shown in the previous examples, ENPP1 expression induced cardiomyocytes to release pro-inflammatory and pro-apoptotic molecules that induce cell death in a host of cell types in the injury region. To test the ENPP1 mAb, an in vitro functional assay was performed in which cardiac fibroblasts were incubated with cardiomyocytes followed by the addition of a vehicle, recombinant ENPP1 and ATP and IgG, or recombinant ENPP1 and ATP and 12-J-4 ENPP1mAb.

cross reactivity with murine ENPP1 (murine ENPP1): significant cross reactivity
binding and inhibitory effects on ENPP1 activity (ENPP1 [1]): most potent
luminescence signal when ENPP1 is added (ENPP1 [2]; ATP incubated with luciferase and ENPP1, compared to IgG): significantly higher
inhibition of ENPP1 (ENPP1 [2]; at nanomolar concentrations): potently inhibits
B1: 12-J-4: Anti-ENPP1 monoclonal antibody, IgG1kappa, made recombinantly in CHO cells; CDRs SEQ ID NO: 1-6, VH SEQ ID NO: 7, VL SEQ ID NO: 9 (antibody, V domains shown)
VH: EVMLVESGGGLVKPGGSLKLSCVASGFTFSSYTMSWVRQTPEKRLEWVATISGGGGNTYYPDSVKGRFTISRDNAKNTLYLQMSSLRSEDTALYYCARRHYGSSPYAMDYWGQGTSVTVSS
VL: DIQMTQTTSSLSASLGDRVTISCRASQDISNYLNWYQQKPDGTVKLLIYHKTRLHSGVPSRFSGSGSGTDYSLTISNLEQEDIATYFCQQGNMLPWTFGGGTKLEIK
modifications: IgG1 kappa constant regions
PI+ cells (cell death) by flow cytometry ([3]; FIG. 18B): significant reduction
cell death and detachment of cardiac fibroblasts [3]: significantly abrogated cell death
cell death and detachment of cardiac fibroblasts ([3]; listed as ENPP1mAb): significantly diminished
